Substitutions are numbered along the chain they refer to. Names and notes keep the numbering of the source.
B1: anti-mTIGIT Nb 16979 (VHH)
VHH: QVQLQESGGGLVQAGESLRLSCAASIIVSDNIMAWYRQSPGKQREIVALISSTGTINYVDSVKGRFTISRDNAKNTLNLQMTKLKPEDTAVYYCSGRTLRVYWGQGTQVTVSS
notes: nanobody from an immunized llama; Cloned in pHen6 after PCR with primers A6E and PMCF; source: E. coli WK6, periplasmic extract, purified (Ni-NTA, SEC); not shown: His6, C-terminal, kept
B2: anti-mTIGIT nanobody 16966 (VHH)
VHH: QVQLQESGGGSVRPGESLRLSCAASSDSSITGMDWYRQAPGKQREWVATITRNNITIYGASVKGRFTVSRDNVKNTWYLQMNSLKPEDTAVYYCTYRGNWGQGTQVTVSS
notes: Cloned into pHen6 after PCR with primers A6E and PMCF; labelled with 99mTc on the His6 tag for the in vivo work; also called Nb 16966; source: E. coli WK6, periplasmic extract, purified (Ni-NTA, SEC); not shown: His6, C-terminal, kept
B3: anti-mTIGIT nanobody 16972 (VHH)
VHH: B2 VHH with S11L, R13Q, P14T, D27V, T56A, I57M, V73A
notes: Cloned into pHen6 after PCR with primers A6E and PMCF; also called Nb 16972; source: E. coli WK6, periplasmic extract, purified (Ni-NTA, SEC); not shown: His6, C-terminal, kept
B4: anti-mTIGIT nanobody 16988 (VHH)
VHH: B2 VHH with S11L, R13Q, P14A, E16G, D27V, T56A, I57M, N72D, V73A, R97H
notes: Cloned into pHen6 after PCR with primers A6E and PMCF; labelled with 99mTc on the His6 tag for the in vivo work; also called lead anti-mTIGIT Nb; source: E. coli WK6, periplasmic extract, purified (Ni-NTA, SEC); not shown: His6, C-terminal, kept
B5: anti-hTIGIT nanobody 16920 (VHH)
VHH: QVQLQESGGGFVQAGGSLRLSCAASSISSIYAMDWYRQAPGKQREFVAGITSGGTTNYGSTVKGRFTISRDESKNTVDLQMNSLKPEDSAVYVCRATISWKIYSGQGTQVTVSS
notes: Cloned into pHen6 after PCR with primers A6E and PMCF; source: E. coli WK6, periplasmic extract, purified (Ni-NTA, SEC); not shown: His6, C-terminal, kept
B6: anti-hTIGIT nanobody 17010 (VHH)
VHH: QVQLQESGGGSVQTGGSLRLSCAASNGFSINAMGWYRQSPGKQRELVARITSGSSTNYTNYADSVKGRFTISRDNAKNTGYLEMNLLKPEDTAVYYCHADVLLGGLQGLIQRFWGQGTQVTVSS
notes: Cloned into pHen6 after PCR with primers A6E and PMCF; also called Nb 17010; source: E. coli WK6, periplasmic extract, purified (Ni-NTA, SEC); not shown: His6, C-terminal, kept
B7: anti-hTIGIT nanobody 16925 (VHH)
VHH: QVQLQESGGGLVQAGGSLRLSCAASSISSINAMGWYRQPPGKQRELVARITFGHSTNYADSVKGRFTISRDNAKSTVYLQMNSLKPEDTAVYYCNADLLLNTQAIRAWGQGTQVTVSS
notes: Cloned into pHen6 after PCR with primers A6E and PMCF; labelled with 99mTc on the His6 tag for the in vivo work; also called lead hTIGIT Nb; source: E. coli WK6, periplasmic extract, purified (Ni-NTA, SEC); not shown: His6, C-terminal, kept
B8: single-chain variable fragment derived from the monoclonal antibody Vibostolimab (scFv, V domains shown)
VH: EVQLVQSGAEVKKPGSSVKVSCKASGYTFSSYVMHWVRQAPGQGLEWIGYIDPYNDGAKYAQKFQGRVTLTSDKSTSTAYMELSSLRSEDTAVYYCARGGPYGWYFDVWGQGTTVTVSS
VL: DIQMTQSPSSLSASVGDRVTITCRASEHIYSYLSWYQQKPGKVPKLLIYNAKTLAEGVPSRFSGSGSGTDFTLTISSLQPEDVATYYCQHHFGSPLTFGQGTRLEIK
notes: VH of the mAb Vibostolimab (Merck); (G4S)3 linker, written out from the printed formula; VL of the mAb Vibostolimab (Merck); Cloned into pHen6 by Gibson assembly; also called scFv Vibo; Vibo scFv; source: E. coli WK6, periplasmic extract, purified (Ni-NTA, SEC), produced in the same way as the Nbs; not shown: His6, C-terminal, kept
B9: anti-hTIGIT nanobody 17037 (VHH)
VHH: QVQLQESGGGLVQAGGSLRLSCAASSTLSIDDMGWYRQAPEKHREFVATISRGGSTNYAASVKGRFTISRDNAKNTVFLQMNNLKSEDTAVYYCRATSTWRYYWAQGTQVTVSS
notes: Cloned into pHen6 after PCR with primers A6E and PMCF; also called Nb 17037; source: E. coli WK6, periplasmic extract, purified (Ni-NTA, SEC); not shown: His6, C-terminal, kept
B10: anti-hTIGIT nanobody 17018 (VHH)
VHH: QVQLQESGGGLVQAGGSLRLSCTASSIFSINAMGWYRQTPGKQRELVARITNGSSTNYADSVKGRFTISRDNAKNTVYLQMNSLKPEDTAVYYCHTDLLLEVGAMRYWGQGTQVTVSS
notes: Cloned into pHen6 after PCR with primers A6E and PMCF; also called Nb 17018; source: E. coli WK6, periplasmic extract, purified (Ni-NTA, SEC); not shown: His6, C-terminal, kept
B11: anti-mTIGIT Nb 16966 (VHH)
VHH: B2 VHH
notes: as for B1
B12: anti-mTIGIT Nb 16972 (VHH)
VHH: B2 VHH with S11L, R13Q, P14T, D27V, T56A, I57M, V73A
notes: as for B1
B13: anti-mTIGIT Nb 16988 (VHH)
VHH: B2 VHH with S11L, R13Q, P14A, E16G, D27V, T56A, I57M, N72D, V73A, R97H
notes: as for B1
B14: anti-hTIGIT Nb 16920 (VHH)
VHH: B5 VHH
notes: as for B1
B15: anti-hTIGIT Nb 17010 (VHH)
VHH: B6 VHH
notes: as for B1
B16: anti-hTIGIT Nb 16925 (VHH)
VHH: B7 VHH
notes: as for B1
B17: single-chain variable fragment derived from the monoclonal antibody Vibostolimab (scFv, V domains shown)
VH: B8 VH
VL: B8 VL
notes: variable domain of the heavy chain (VH) of Vibostolimab (Merck); (G4S)3 linker; variable domain of the light chain (VL) of Vibostolimab (Merck); Cloned in pHen6; also called ScFv Vibo; Vibo scFv; source: E. coli WK6, periplasmic extract, purified (Ni-NTA, SEC), produced in the same way as the Nbs; not shown: His6, C-terminal, kept
B18: anti-hTIGIT Nb 17037 (VHH)
VHH: B9 VHH
notes: as for B1
B19: anti-hTIGIT Nb 17018 (VHH)
VHH: B10 VHH
notes: as for B1

Biological target: CD155 (Homo sapiens) (UniProt P15151)
Assay: not given
Conditions: cited from earlier work

Row | Molecule | Kd [nM]
1 | TIGIT (from UniProt Q495A1) | 2

Biological target: recombinant mouse TIGIT-Fc carrier-free protein (mouse) (UniProt P86176)
Assay: SPR; Biacore T200; recombinant m/hTIGIT-Fc immobilised on a CM5 chip; Nbs injected, eight two-fold dilutions from 200 nM, 10 µl/min, 25°C; HBS pH 7.4 (0.01 M HEPES, 0.15 M NaCl, 3 mM EDTA, 0.005% Tween 20); fit 1:1 binding with drift and RI2
Conditions: not given

Sequence of recombinant mouse TIGIT-Fc carrier-free protein (mouse) (P86176 29-148): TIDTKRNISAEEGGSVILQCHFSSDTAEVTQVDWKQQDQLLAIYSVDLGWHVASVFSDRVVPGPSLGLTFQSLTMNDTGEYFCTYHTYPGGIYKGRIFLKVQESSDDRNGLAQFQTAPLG

Row | Kd [nM] | Molecule
2 | 846 | B1

Biological target: T1, recombinant mouse TIGIT-Fc carrier-free protein (Mus musculus, UniProt A0A0B4J1G6)
T1 construct: T cell Ig and ITIM domain receptor (TIGIT), mouse; also called mTIGIT-Fc; recombinant mTIGIT; source: bought: Biolegend
Assay: as above
Conditions: both partners purified
T1 sequence (P86176 29-148): as above

Row | Kd [nM] | Molecule
3 | 0.157 ± 0.001 | B2
4 | 0.152 ± 0.001 | B3
5 | 0.104 ± 0.001 | B4

Biological target: T2, recombinant human TIGIT-Fc carrier-free protein (Homo sapiens (Human)., UniProt Q495A1)
T2 construct: T cell Ig and ITIM domain receptor (TIGIT), human; also called hTIGIT-Fc; recombinant hTIGIT; source: bought: Biolegend
Assay: as above
Conditions: both partners purified

T2 sequence (Q495A1 22-141): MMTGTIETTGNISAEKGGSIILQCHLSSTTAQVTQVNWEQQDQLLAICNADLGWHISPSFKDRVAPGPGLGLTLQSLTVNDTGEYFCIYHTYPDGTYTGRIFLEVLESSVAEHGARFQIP

Row | Kd [nM] | Molecule
6 | 0.753 ± 0.002 | B5
7 | 0.345 ± 0.001 | B6
8 | 1.974 ± 0.004 | B7
9 | 0.996 ± 0.004 | B8
10 | 0.116 ± 0.001 | B9
11 | 0.47 ± 0.002 | B10

Biological target: T3, recombinant mouse TIGIT-Fc carrier-free protein (Mus musculus, UniProt A0A0B4J1G6)
T3 construct: T cell Ig and ITIM domain receptor (TIGIT), mouse; also called mTIGIT-Fc; mouse TIGIT recombinant protein; source: bought: Biolegend (Cat. No. 771808)
Assay: SPR; Biacore T200; m/hTIGIT-Fc (10 µg/mL in 10 mM Na-acetate pH 4.0) immobilised on a CM5 chip; Nbs or scFv injected in two-fold dilutions from 200 nM, 10 µl/min, 25°C; HBS pH 7.4 (0.01 M HEPES, 0.15 M NaCl, 3 mM EDTA, 0.005% Tween 20); fit 1:1 binding with drift and RI2
Conditions: both partners purified
T3 sequence (P86176 29-148): as the sequence (P86176 29-148) above

Row | koff [s⁻¹] | kon [M⁻¹ s⁻¹] | Molecule
12 | 0.00257 | 1.64e+07 | B11
13 | 0.00113 | 7.46e+06 | B12
14 | 0.000738 | 7.06e+06 | B13
15 | 0.114 | 134000 | B1

Biological target: T4, recombinant human TIGIT-Fc carrier-free protein (Homo sapiens (Human)., UniProt Q495A1-1)
T4 construct: T cell Ig and ITIM domain receptor (TIGIT), human; also called hTIGIT-Fc; human TIGIT recombinant protein; source: bought: Biolegend (Cat. No. 768608)
Assay: as above
Conditions: both partners purified

T4 sequence (Q495A1 22-141): as the sequence (Q495A1 22-141) above

Row | koff [s⁻¹] | kon [M⁻¹ s⁻¹] | Molecule
16 | 0.00426 | 5.66e+06 | B14
17 | 0.000803 | 2.33e+06 | B15
18 | 0.000911 | 462000 | B16
19 | 0.000827 | 830000 | B17
20 | 0.00157 | 1.36e+07 | B18
21 | 0.000496 | 1.06e+06 | B19
